The values that follow come from the DeepSol protein solubility set.

A short description of this data set: soluble on expression in E. coli; label from the status in PepcDB or PDB records.
“MRTSSGQILTVTKEISLQASPTEIWSELIHINEVDSIEKKSIISSTLGFPRHIRTHLDTARVGGKRTAYYEKGLTFEETITAYEPERLMILDIKTDPDKISAQVMDEHILIGGKHLDILEDTYELQALSNGCSKLKLTSKFYINTPFNWYAGLWGNYLMSDILKNELELIKNRAEAKLEHHHHHH”: the “soluble on expression in E. coli” value is reported as “soluble”.
For the sequence “LGEALNIYTPHRIVAFDNSNIQGTNPVSAMIVFIDGKPYKKEYRKYKIKTVTGPDDYGSMREVVRRRYTRVLRENLPLPDLIIIDGGKGQINAARDVIENELGLDIPIAGLAKDEKHRTSNLLIGDPLEVAYLERNSQEFYLLQRIQDEVHRFAI”, the “soluble on expression in E. coli” value is listed as “not soluble”.
“MAHHHHHHMIYLIDNEDMIYIEFYRKKDCTFVYKFFNDTLPTGSTLSTSDVSAEYANIKYEINNNSCTVYSCDYSCLLKHKDYITIINNVLDKNLSDEILENYKNEKWLMYTKNDEEKLNLVIESNTLLRIKGKLRHEIIFGIPKKKKIQMQDKLMDRKNSYLVIFRFIREDNIKNFVTQKIKNKIPQNERQEKDCVPINVNEYTSEKLEKMYVLDVYNQIALHFGHTRAYEQEENVVGNRKFDSQDIFVPWYFQQQYKTEGYDDDAEGEGEEEPEKENEKEKEESHKFKPVKKGNMFKILKMKFFFFFYLLHNFRNIYIYNL”: the “soluble on expression in E. coli” value is listed as “soluble”.
As for “AHHHHHHGSAGVRLVGVWKQFGSFTAVKDLTLEVRDGEFLVLLGPSGCGKTTTLRMIAGLEEPTKGQIYIGDKLVADPEKGVFVPPKDRDIAMVFQSYALYPHMTVYENIAFPLKLRKVPKQEIDKRVREVAEMLGLTELLNRKPRELSGGQRQRVALGRAIVRRPQVFLMDEPLSNLDAKLRVKMRAELKKLQKQLGVTTIYVTHDQVEAMTMGDRIAVMNQGVLQQVGTPEEVYEKPANTFVAGFIGSPPMNFLDATITEDGFLDFGEFRLKLLPDQFEVLQDYVGKEVIFGIRPEDIYDALFAQVKIPGENMARGVVDIIENLGGEKIVHISIGGLIVTAKFPGESRVKEGDEIDIVFDMKKIHIFNKKTGKAIL”, the “soluble on expression in E. coli” value was “soluble”.
In the case of “MNPALESLLADADLCVKCGLCSPHCPTYRQTADENESPRGRIALIQGWATGRLSLTAALRGPLDDCLLCRNCEAVCPAKVPYSRLVDRFRAETGQRRKPLEHHHHHH”, the “soluble on expression in E. coli” value is recorded as “not soluble”.
Regarding “MEGLQRSTISFRRQGSSGIVFDDRLIAELNKSGNNEQKDESQRDEQPKPMSESSEQVKPIDEKDKLRPIKTGGGAPGGIERSRSNGGGAQRHHRTTGRVSPAVDPPSPRISSCGCCSAFGKNPPGKKVNPRKRPPKRRSR”, the “soluble on expression in E. coli” value is on record as “not soluble”.
Under “MDIIRLGDTTSHGGTVIEAFGQTDLNGKPMAGVGHQVVCPLCKGTFPITEGSALLDVNGVPVALHGMKTACGASLIASGPLGAAEN” stands “not soluble”; under “MNTSLFKQERQKYIPKLPNILKKDFNNISLVYGENTEAIQDRQALKEFFKNTYGLPIISFTEGESSLSFSKALNIGIILSGGPAPGGHNVISGVFDAIKKFNPNSKLFGFKGGPLGLLENDKIELTESLINSYRNTGGFDIVSSGRTKIETEEHYNKALFVAKENNLNAIIIIGGDDSNTNAAILAEYFKKNGENIQVIGVPKTIDADLRNDHIEISFGFDSATKIYSELIGNLCRDAMSTKKYWHFVKLMGRSASHVALECALKTHPNICIVSEEVLAKKKTLSEIIDEMVSVILKRSLNGDNFGVVIVPEGLIEFIPEVKSLMLELCDIFDKNEGEFKGLNIEKMKEIFVAKLSDYMKGVYLSLPLFIQFELIKSILERDPHGNFNVSRVPTEKLFIEMIQSRLNDMKKRGEYKGSFTPVDHFFGYEGRSAFPSNFDSDYCYSLGYNAVVLILNGLTGYMSCIKNLNLKPTDWIAGGVPLTMLMNMEERYGEKKPVIKKALVDLEGRPFKEFVKNRDKWALNNLYLYPGPVQYFGSSEIVDEITETLKLELFK”, “soluble”.
Consider “MRIFLNTVHLFALCAAAAIATEESTTPKPASWKFGTIAGEPDDYTNSTAVQVNNFKECIAKCSAIFDCIIASQKSKSEPCNLFLWNSVTKVKRAESGGEGQTAFRVFTEQPRCKLSMDELLNGKKYQIYKNDTEHYIWTINKTEDGWAMEYSKTILNNIIHCNDPDAYKYPGVRGCYKIVLPFKEDKKWESGMLSYPEAVGNCTLLGGDGLMTIPSSDFASQIKQNQNSTQSSTVYFIGLTRPDDSSNDNWVWTLPDLKIDSSPLPPWSFPPSLNVEAIWAENCALVSIEADPTKSLLHATLCQQWNRMSGYICHFAQ”, for which the “soluble on expression in E. coli” value was “not soluble”.
Under “MAHHHHHHMGKALGMQRAKAQRLRKVVLRGSAAGSRSFLLYAQPTPNMLSETSGAVVDMCTDEFSIDIKEPSPEDAIVVASLTLRKKKMQKWREEKRTAAKPPKRAQSGASTCTLNFNKQETRWPLKISEC” stands “not soluble”.
Under “MKVGNQMNEEQLSKRLEKVASYITKNERIADIGSDHAYLPCFAVKNQTASFAIAGEVVDGPFQSAQKQVRSSGLTEQIDVRKGNGLAVIEKKDAIDTIVIAGMGGTLIRTILEEGAAKLAGVTKLILQPNIAAWQLREWSEQNNWLITSEAILREDNKVYEIMVLAPSEKPVTWTKQEIFFGPCLLKEQSAIFKSKWRHEANTWQNIIQTISNNQPVSTENQAKIRELEHKIALVEDVLK” stands “not soluble”; under “MVICLSTEISLVAATLNEIGNIATFLDKVEKELIYYNFEIIIVDDNSSDGTKEYLAERSLKDKNLHVIENPYRVGMLGSLKMGINSAKGKYCIVMDADLQHPPEAILSIIERLNHGCDIVVGSRYVNGGSAGDRNSYRALLSIGAQYLSYLFLRSARSTTDPMSGFFGFQTSMNHDFSYKNRFKLTDMGAKILLLLLAENQNCNVCDVGYVFRSRERGKSKIVSGMSFLERYMSELLDAMIVERQWKNRGCLEHHHHHH”, “not soluble”.
Regarding “MGSDKIHHHHHHMKKYYLLSLISASLIGATCIQCTSPKQKSGENTLPQKSELFVSLPDYCPTPDGMAIAPNGDLILACPNFADITQPACLMRITKDGAVSKWLDVPVLEETGWASPMGLAFNEEGDLFISDNQGWSGAEKAKNKGRVLRLKFENDQLKETITVASGMEHPNGIRIRNGKLYVTQSSLSQIKDPSGLLVSGVYCFDMNDRDIAVTNTSADQNLLTTVITKNPEVQYGLDGIVFNEAGDLFVGNFGDGAIHRIKMDAEGKVVSNDVWAQDTTQLRTTDGMCIDDKGNIWVADFSANAVARVDKDGKIQRIAQSPDCDGSDGGLDQPGEPIVWNGQVIVSCFDLVTGPDKVNTKHDKPFTLAKLSLE”, the “soluble on expression in E. coli” value is reported as “not soluble”.
Under “MEVYIPSFRHEDSDLERGYTVFKIEVLMNGRKHFVEKRYSEFHALHKKLKKCIKTPEIPSKHVRNWVPKVLEQRRQGLETYLQAVILENEELPKLFLDFLNVRHLPSLPKAESCGSFDETESEESSKLSHQPVLLFLGDPYVLPAASDFPNVVIEGVLHGIFFSHLQPR” stands “not soluble”; under “MGHHHHHHSHMAVASTSTSDGMLTLDLIQEEDPSPEEPTSCAESFRVDLDKSVAQLAGSRRRADSDRIQPSADRASSLSRPWEKTDKGATYTPQAPKKLTPTEKGRCASLEEILSQRDAASARTLQLRAEEPPTPALPNPGQLSRIQDLVARKLEETQELLAEVQGLGDGKRKAKDPPRSPPDSESEQLLLETERLLGEASSNWSQAKRVLQEVRELRDLYRQMDLQTPDSHLRQTTPHSQYRKSLM”, “not soluble”.
For “MSVSLVVIRLELAEHSPVPAGFGFSAAAGEMSDEEIKKTTLASAVACLEGKSPGEKVAIIHQHLGRREMTDVIIETMKSNPDELKTTVEERKSSEASPTAQRSKDHSKECINAAPDSPSKQLPDQISFFSGNPSVEIVHGIMHLYKTNKMTSLKEDVRRSAMLCILTVPAAMTSHDLMKFVAPFNEVIEQMKIIRDSTPNQYMVLIKFRAQADADSFYMTCNGRQFNSIEDDVCQLVYVERAEVLKSEDGASLPVMDLTELPKCTVCLERMDESVNGILTTLCNHSFHSQCLQRWDDTTCPVCRYCQTPEPVEENKCFECGVQENLWICLICGHIGCGRYVSRHAYKHFEETQHTYAMQLTNHRVWDYAGDNYVHRLVASKTDGKIVQYECEGDTCQEEKIDALQLEYSYLLTSQLESQRIYWENKIVRIEKDTAEEINNMKTKFKETIEKCDNLEHKLNDLLKEKQSVERKCTQLNTKVAKLTNELKEEQEMNKCLRANQVLLQNKLKEEERVLKETCDQKDLQITEIQEQLRDVMFYLETQQKINHLPAETRQEIQEGQINIAMASASSPASSGGSGKLPSRKGRSKRGK”, the “soluble on expression in E. coli” value is recorded as “soluble”.
Take “MARTVFCEYLKKEAEGLDFQLYPGELGKRIFDSVSKQAWGEWIKKQTMLVNEKKLNMMNAEHRKLLEQEMVNFLFEGKDVHIEGYVPPSN”: the “soluble on expression in E. coli” value was “not soluble”.
With “MGSDKIHHHHHHMKTIAIRDVTGIMEPLPGFSVVRTDGSDGQRSIKLNGYKTTNNQYGYQFVKNENTVVYDDEEYIIKTHRERTYRKGVGVEATAIHRIFDDLRNNYIYDEKTGTLRLDAMLSFALEGSGYTFEIDTTDLPASVRVENFGWNNSLALFRDILEKFGAEFDYKGKKIYVAKKFGIQRDEPFLRYRFNVKDPEKEIDTSSFATYIRGYGKKDDKGNYLFAEYTSPLAKIYGIKHADPVKDERYTDKDSLLAAMKKQLNDNIDISLTFTAIELESMGLRDIKKGDYVWCVIEPFDLNVQLRAVSREDYSDETKSPTFTFGTITKKASDIIASFNTTKKAVDKVIDTSTGKIKDSAIDTTGLTTKSEFQSHVDNKIVHITAEERAAWNAASNSIGDLTFITWSTPTLKNGWIQYTANTESYPIQYGKDAIGTVNIRGAVSSGVVGSSTPVFTLPAGFRPPFPHLFIGVSSVATDGTPQYFRGIIKTNGDVCIENISNKDTPNQFIGIYTQFKAI”, the “soluble on expression in E. coli” value was “not soluble”.
With “AEFQVTSNEIKTGEQLTTSHVFSGFGCEGGNTSPSLTWSGVPEGTKSFAVTVYDPDAPTGSGWWHWTVVNIPATVTYLPVDAGRRDGTKLPTGAVQGRNDFGYAGFGGACPPKGDKPHHYQFKVWALKTEKIPVDSNSSGALVGYMLNANKIATAEITPVYEIKLE”, the “soluble on expression in E. coli” value is “soluble”.
Take “MGSDKIHHHHHHMAENFLTQDEVDALLNFENGSKHQQTAQKENEVSYPGGVRPYNMATQERIVRGRMPALEIINARFANSLQIGLYNFLRRGVDISAGSIKTIKYSEFTRSLVVPANINLVSMKPLRGTALFTIDPNLIFLIVDNMFGGDGRFHTRVEGREFTLTEQGIIRRLLDVLFEHYEKAWQSVYPVKFEYIRAEMNPQFANIVTPTDIVVASAFELNLGGNRGEFYTCIPYTMLEPIRDLLNNSMQEDRAEVDKNWIKSLTRQVQGAEIEIIANLGQTQVTLHQILNMQEGDVIALDIPDTVVAIANNVPIMDCHYGILNGHYALKVKTVRSPNETD”: the “soluble on expression in E. coli” value is given as “not soluble”.
Under “MGSDKIHHHHHHMFNGRPFPVDAFPKIIRNAIYEVEQHTQAPQGLIAASALGVISLACQNRIDVCRLNNLRGPVSLFLMTLAESGERKSTVDKLLMKPLYQLEEDLFEKYTHDLTAWRNDEAIFNIEKKALMSKLKSDIRRNKDHLATNERLKELLTTNPKAPVRFKFLFNDATPAAIKAHLCGHWRSVGIMSDEAGIIFNGYTLNELPFINKMWDGSIFTVERKNEPEKLIRDARITLSLMVQPNVFKGYIDRKGDMAKGIGFFARCLMCQPASTQGNRKISNPIFSNEHLPVFHQRLMEIVNESIIKINENNRICLRFSAEAERHWIEFYNQVESEMRMIGLLYDFKDYASKMAENMARLAALLHYFSGDGGDISVTAVKAAVEIVAWYIEEYIRLFSKKEEFSLDVSEADELYCWIKDYCTQKFSSCIKKNIILQFGPNKFRNRDKANELIRILISQNKIFISSWGKTKIINITHCVF” stands “not soluble”.
